{
  "source": "paper PMC6447857",
  "about": "“Structural Study of Agmatine Iminohydrolase From Medicago truncatula, the Second Enzyme of the Agmatine Route of Putrescine Biosynthesis in Plants” (Frontiers in Plant Science, 2019)",
  "proteins": {"B1": {"name": "agmatine iminohydrolase from Medicago truncatula (enzyme)", "chain": "SNAHGFHMPAEWEPHSQCWIGWPERADNWRDGAVHAQLVFTRVAAAISRFEKVTVCASSAQWENARNQLPDHVRVVEISSNDSWFRDIGPTFVVRRETSKSDDAEHRIAGIDWTFNSWGGLEDGCYCDWSLDSLVKKKILDVERIPRFSHSMVLEGGSIHVDGEGTCITTEECLLNKNRNPHLSKSQIEDELKAYLGVRKVIWLPRGLYGDDDTNGHVDNMCCFVRPGAVLLSWTDDKTDPQYERSEEAYSLFSSVTDANGRKFEVIKLHVPGPLYMTEKEAAGVFQDDGAKPRLPGTRLAASYVNFYIANGAIIAPQFGDKKWDDEAIRVLSKTFPHHEVVGIEGSREIVLSGGNIHCITQQQPAI", "notes": "Ser-Asn-Ala linker from the vector pMCSG68 that is not cleaved from the expressed protein; agmatine iminohydrolase, Medicago truncatula, UniProt G7JT50, open reading frame MTR_4g112810, encoded protein starting from codon number 11 to the end; theoretical mass of the construct 41.2 kDa; Homodimer by MALS, SAXS and in both crystal forms; In 6NIC the protein holds the small molecule …"}},
  "biological_target": "the molecule itself",
  "test": "SEC-MALS; in-line SEC (WTC-015S5 column) with MALS detector, 5.5 mg/ml MtAIH solution loaded; monomer to dimer",
  "data": [
    {"protein": "B1", "values": [
      {"measurement": "stoichiometry N", "result": 2}
    ]}
  ]
}
